Where two headings read alike, the source gives them in different places. One block for each binder: values may come before it.
Key:
[1] = target: T1, mouse TrkC LRRIg1 (soluble) (mouse, UniProt Q6VNS1 32-302); assay: SPR
T1 chain: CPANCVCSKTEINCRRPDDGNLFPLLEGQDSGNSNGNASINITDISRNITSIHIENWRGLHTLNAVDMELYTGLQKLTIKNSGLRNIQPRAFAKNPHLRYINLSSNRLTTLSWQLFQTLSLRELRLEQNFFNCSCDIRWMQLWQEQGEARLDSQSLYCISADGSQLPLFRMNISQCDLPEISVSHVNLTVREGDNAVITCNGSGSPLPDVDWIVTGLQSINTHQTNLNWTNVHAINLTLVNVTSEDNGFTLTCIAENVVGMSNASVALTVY

[2] = target: T1, mouse TrkC LRRIg1 (soluble); assay: SPR
[3] = target: T2, TrkC (species and construct not stated; Supplementary Figs 5a,b and 8i) ( (mouse or chicken constructs …, UniProt Q6VNS1 32-825); assay: SPR; equilibrium; RPTPσ and TrkC truncations (Supplementary Fig. 5a,b); species and who was immobilized not given; conditions: both partners purified
T2 construct: TrkC ectodomain construct; they may differ

[4] = target: T1, mouse TrkC LRRIg1 (soluble); assay: SEC-MALS; Superdex200 HR10/30 in 10 mM Tris, 50 mM NaCl, pH 7.5; refractive index and multi-angle light scattering detectors
[5] = target: T1, mouse TrkC LRRIg1 (soluble); assay: SPR
[6] = target: T3, mouse TrkC LRRIg1, C-terminal Avitag, immobilized (mouse, UniProt Q6VNS1 32-302, biotin on the Avitag (enzymatic)); assay: SPR
T3 chain: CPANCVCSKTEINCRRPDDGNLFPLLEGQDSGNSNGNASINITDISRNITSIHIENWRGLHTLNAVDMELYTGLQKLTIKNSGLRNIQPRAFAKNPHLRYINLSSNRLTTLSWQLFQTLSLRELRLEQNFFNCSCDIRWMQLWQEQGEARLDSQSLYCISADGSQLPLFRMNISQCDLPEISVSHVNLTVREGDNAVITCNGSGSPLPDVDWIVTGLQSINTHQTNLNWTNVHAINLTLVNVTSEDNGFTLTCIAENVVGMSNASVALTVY

mouse TrkC LRRIg2 = target: T4, mouse TrkC LRRIg2 (Mus musculus); assay: SPR
T4 chain: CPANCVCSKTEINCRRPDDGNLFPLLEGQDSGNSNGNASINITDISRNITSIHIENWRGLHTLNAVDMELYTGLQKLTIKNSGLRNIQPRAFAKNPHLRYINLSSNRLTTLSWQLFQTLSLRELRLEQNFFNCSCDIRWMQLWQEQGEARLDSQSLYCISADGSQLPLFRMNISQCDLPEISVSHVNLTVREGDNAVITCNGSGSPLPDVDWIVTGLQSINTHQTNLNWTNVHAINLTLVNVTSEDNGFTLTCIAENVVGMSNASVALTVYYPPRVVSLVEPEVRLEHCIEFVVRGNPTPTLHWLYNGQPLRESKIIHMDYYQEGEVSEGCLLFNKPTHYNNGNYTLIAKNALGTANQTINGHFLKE

[7] = target: T5, chicken RPTPσ N73S+S74N (RPTPδ-like) Ig1–3, C-terminal Avitag (chicken, UniProt F1NWE3 29-316, N73S | S74N, biotin on the Avitag (enzymatic)); assay: SPR; equilibrium; biotinylated chicken RPTPσ Ig1–3 (wild type or mutants) immobilized on streptavidin-coated CM5 chips, chicken TrkC LRRIg1 as analyte; 10 mM HEPES pH 7.5, 150 mM NaCl, 0.01% Tween 20, 25 °C; conditions: both partners purified
T5 construct: chicken RPTPσ Ig1–3, amino acids 29–316 of NCBI NM_205407.1; not shown: Avitag (BirA recognition site), C-terminal, kept
T5 sequence (looked up): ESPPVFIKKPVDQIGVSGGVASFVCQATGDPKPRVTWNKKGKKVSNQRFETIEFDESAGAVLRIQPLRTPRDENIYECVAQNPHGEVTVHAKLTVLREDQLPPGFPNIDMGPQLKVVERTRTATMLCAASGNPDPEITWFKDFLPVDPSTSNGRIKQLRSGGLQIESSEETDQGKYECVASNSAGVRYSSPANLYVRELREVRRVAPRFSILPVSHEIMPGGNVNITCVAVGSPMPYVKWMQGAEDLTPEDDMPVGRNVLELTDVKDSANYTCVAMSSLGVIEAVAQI

[8] = target: T6, chicken RPTPσ Ig1–3, C-terminal Avitag, immobilized (chicken, UniProt F1NWE3 29-316, biotin on the Avitag (enzymatic)); assay: as above; conditions: both partners purified
T6 construct: chicken RPTPσ Ig1–3, amino acids 29–316 of NCBI NM_205407.1; not shown: Avitag (BirA recognition site), C-terminal, kept
T6 sequence (looked up): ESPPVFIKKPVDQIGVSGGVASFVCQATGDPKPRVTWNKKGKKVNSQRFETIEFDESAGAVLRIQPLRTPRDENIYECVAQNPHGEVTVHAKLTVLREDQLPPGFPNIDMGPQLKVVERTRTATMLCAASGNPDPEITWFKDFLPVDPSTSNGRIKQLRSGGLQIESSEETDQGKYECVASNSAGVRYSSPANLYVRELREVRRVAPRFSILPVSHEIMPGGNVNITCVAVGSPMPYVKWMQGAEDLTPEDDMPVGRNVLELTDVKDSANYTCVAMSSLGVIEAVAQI

[9] = target: T7, mouse TrkC LRRIg1, C-terminal Avitag, immobilized (mouse, UniProt Q6VNS1 32-302, biotin on the Avitag (enzymatic)); assay: SPR; equilibrium; biotinylated mouse TrkC LRRIg1 (wild type or D240A+D242A) immobilized on streptavidin-coated CM5 chips, human RPTP proteins as analytes; 10 mM HEPES pH 7.5, 150 mM NaCl, 0.01% Tween 20, 25 °C; in Fig. 6a also with increasing HS or heparin-dp10; conditions: both partners purified
T7 construct: mouse TrkC, leucine-rich repeat domain and first Ig domain, amino acids 32–302 of NCBI BC139764.1; not shown: Avitag (BirA recognition site), C-terminal, kept

[10] = target: T8, chicken TrkC LRRIg1cryst (crystallization protein) (chicken, UniProt Q91044 32-302, lack residues 63–77 | N163Q | N232Q | N259Q | N267Q | N294Q); assay: crystal structure; 2.5 Å, space group P2; 10% PEG 20k, 20% PEG MME 550, 0.1 M bicine/Tris pH 8.5, 0.03 M sodium nitrate, disodium hydrogen phosphate and ammonium sulphate; 20.5 °C; conditions: both partners purified
T8 construct: chicken TrkC LRRIg1, amino acids 32–302 of NCBI NM_205169.1, lacking residues 63–77; extra vector residues ETG (N-terminal) and GT (C-terminal) seen in the model; The methods name only the pHL-Avitag3 vector for this construct; also called cTrkC LRRIg1_(cryst)
T8 sequence (looked up): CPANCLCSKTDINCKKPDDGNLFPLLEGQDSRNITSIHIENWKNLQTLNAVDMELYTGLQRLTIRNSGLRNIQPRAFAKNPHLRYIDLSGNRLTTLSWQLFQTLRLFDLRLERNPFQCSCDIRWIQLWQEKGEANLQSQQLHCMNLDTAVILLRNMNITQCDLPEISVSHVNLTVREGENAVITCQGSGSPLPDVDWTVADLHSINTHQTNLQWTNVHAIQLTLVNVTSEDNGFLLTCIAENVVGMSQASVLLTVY

B1: RPTPσ Ig1–3 (species not stated; Supplementary Figs 5a and 8i) (domain or fragment)
chain: EEPPRFIKEPKDQIGVSGGVASFVCQATGDPKPRVTWNKKGKKVNSQRFETIEFDESAGAVLRIQPLRTPRDENVYECVAQNSVGEITVHAKLTVLREDQLPSGFPNIDMGPQLKVVERTRTATMLCAASGNPDPEITWFKDFLPVDPSASNGRIKQLRSGALQIESSEETDQGKYECVATNSAGVRYSSPANLYVRVRRVAPRFSILPMSHEIMPGGNVNITCVAVGSPMPYVKWMQGAEDLTPEDDMPVGRNVLELTDVKDSANYTCVAMSSLGVIEAVAQITVKSLPKA
Kd [1]: 580 nM | Kd [2]: 551 nM

B2: RPTPσ Ig1–2 (species not stated; Supplementary Fig. 5a) (domain or fragment)
chain: EEPPRFIKEPKDQIGVSGGVASFVCQATGDPKPRVTWNKKGKKVNSQRFETIEFDESAGAVLRIQPLRTPRDENVYECVAQNSVGEITVHAKLTVLREDQLPSGFPNIDMGPQLKVVERTRTATMLCAASGNPDPEITWFKDFLPVDPSASNGRIKQLRSGALQIESSEETDQGKYECVATNSAGVRYSSPANLYVRV
Kd [3]: 2400 nM

B6: chicken RPTPσ Ig1–2 (as found in the 2.5 Å complex crystals) (domain or fragment)
chain: ESPPVFIKKPVDQIGVSGGVASFVCQATGDPKPRVTWNKKGKKVNSQRFETIEFDESAGAVLRIQPLRTPRDENIYECVAQNPHGEVTVHAKLTVLREDQLPPGFPNIDMGPQLKVVERTRTATMLCAASGNPDPEITWFKDFLPVDPSTSNGRIKQLRSGGLQIESSEETDQGKYECVASNSAGVRYSSPANLYVR
notes: chicken RPTPσ; the crystallization protein was Ig1–3 (amino acids 29–316 of NM_205407.1); the cleavage site in the Ig2–Ig3 linker is not determined; also called cRPTPσ Ig1-2; source: HEK-293S GnTI− cells as Ig1–3, purified; Ig3 absent from the crystals, proteolytic cleavage the most likely reason
stoichiometry N [10]: 1

Continued, values first:

stoichiometry N [4]: 1 | Kd [5]: 468 nM | Kd [6]: 278 nM | Kd (mouse TrkC LRRIg2): 202 nM
B3: human RPTPσ Ig1-FN3 (domain or fragment)
chain: EEPPRFIKEPKDQIGVSGGVASFVCQATGDPKPRVTWNKKGKKVNSQRFETIEFDESAGAVLRIQPLRTPRDENVYECVAQNSVGEITVHAKLTVLREDQLPSGFPNIDMGPQLKVVERTRTATMLCAASGNPDPEITWFKDFLPVDPSASNGRIKQLRSGALQIESSEETDQGKYECVATNSAGVRYSSPANLYVRVRRVAPRFSILPMSHEIMPGGNVNITCVAVGSPMPYVKWMQGAEDLTPEDDMPVGRNVLELTDVKDSANYTCVAMSSLGVIEAVAQITVKSLPKAPGTPMVTENTATSITITWDSGNPDPVSYYVIEYKSKSQDGPYQIKEDITTTRYSIGGLSPNSEYEIWVSAVNSIGQGPPSESVVTRTGEQAPASAPRNVQARMLSATTMIVQWEEPVEPNGLIRGYRVYYTMEPEHPVGNWQKHNVDDSLLTTVGSLLEDETYTVRVLAFTSVGDGPLSDPIQVKTQQGVPGQPMNLRAEARSETSITLSWSPPRQESIIKYELLFREGDHGREVGRTFDPTTSYVVEDLKPNTEYAFRLAARSPQGLGAFTPVVRQRTL

Kd [7]: > 21000 nM | Kd [8]: 3500 nM
B4: chicken TrkC LRRIg1 (analyte of Fig. 3c) (domain or fragment)
chain: CPANCLCSKTDINCKKPDDGNLFPLLEGQDSGSSNGNTSINITDISRNITSIHIENWKNLQTLNAVDMELYTGLQRLTIRNSGLRNIQPRAFAKNPHLRYIDLSGNRLTTLSWQLFQTLRLFDLRLERNPFQCSCDIRWIQLWQEKGEANLQSQQLHCMNLDTAVILLRNMNITQCDLPEISVSHVNLTVREGENAVITCQGSGSPLPDVDWTVADLHSINTHQTNLQWTNVHAIQLTLVNVTSEDNGFLLTCIAENVVGMSQASVLLTVY

Kd [9]: > 22000 nM
B5: human RPTPδ sEcto (domain or fragment)
chain: ETPPRFTRTPVDQTGVSGGVASFICQATGDPRPKIVWNKKGKKVSNQRFEVIEFDDGSGSVLRIQPLRTPRDEAIYECVASNNVGEISVSTRLTVLREDQIPRGFPTIDMGPQLKVVERTRTATMLCAASGNPDPEITWFKDFLPVDTSNNNGRIKQLRSESIGGTPIRGALQIEQSEESDQGKYECVATNSAGTRYSAPANLYVRELREVRRVPPRFSIPPTNHEIMPGGSVNITCVAVGSPMPYVKWMLGAEDLTPEDDMPIGRNVLELNDVRQSANYTCVAMSTLGVIEAIAQITVKALPKPPGTPVVTESTATSITLTWDSGNPEPVSYYIIQHKPKNSEELYKEIDGVATTRYSVAGLSPYSDYEFRVVAVNNIGRGPPSEPVLTQTSEQAPSSAPRDVQARMLSSTTILVQWKEPEEPNGQIQGYRVYYTMDPTQHVNNWMKHNVADSQITTIGNLVPQKTYSVKVLAFTSIGDGPLSSDIQVITQTGVPGQPLNFKAEPESETSILLSWTPPRSDTIANYELVYKDGEHGEEQRITIEPGTSYRLQGLKPNSLYYFRLAARSPQGLGASTAEISARTMQSKPSAPPQDISCTSPSSTSILVSWQPPPVEKQNGIITEYSIKYTAVDGEDDKPHEILGIPSDTTKYLLEQLEKWTEYRITVTAHTDVGPGPESLSVLIRTNEDVPSGPPRKVEVEAVNSTSVKVSWRSPVPNKQHGQIRGYQVHYVRMENGEPKGQPMLKDVMLADAQWEFDDTTEHDMIISGLQPETSYSLTVTAYTTKGDGARSKPKLVSTTGAVPGKPRLVINH

— paper PMC4239663, “Structural basis for extracellular cis and trans RPTPσ signal competition in synaptogenesis” (Nature Communications, 2014)
